Results on 27 sequences are retold here after the supplement of paper PMC9170038.

This series deals with MS2 coat protein. Put plainly: apparent KD of MS2 coat protein; designed switch direction (-1 OFF switch, 1 ON switch): 1; higher = weaker reporter binding. In a few lines:
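Transcription of designed RNA switches on Illumina chips was done by stalled E. coli RNA polymerase. SNAP-549-labelled MS2 coat protein was then titrated in doubling steps from 0.7 or 1.5 nM to 3 µM, with steps of 0.8–1.5 h at the lowest and 10–20 min at the highest concentration. The per-design median over clusters of curve-fitted normalised fluorescence is reported as apparent KD.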

Where [1] appears, read: input ligand: microRNA oligo, concentration not stated.
Setting [2] is: Eterna round: R95, input ligand: FMN 200 uM.
Setting [3] is: Eterna round: R95, input ligand: microRNA oligo, concentration not stated.
Where [4] appears, read: Eterna round: R95, input ligand: none.

Turning to “UAAUGUUUGCGAGGAUAUCGUUUAUUGAAGUUACGAGAAGGCGCUCUUCUUACAUGAGGAUCACCCAUGUCUGUUUUGCAUGAU [JR_SSNG1_Sub069] (Eterna round: R96, puzzle: Same State NG 1)”, the “apparent KD of MS2 coat protein” value (input ligand: FMN 200 uM) turned out to be 44.4 nM, the “apparent KD of MS2 coat protein” value under setting [1] was found to be 56.8 nM and the “apparent KD of MS2 coat protein” value (input ligand: none) came to 81.5 nM.
On the same counts, the results for “UAUGAUGCCGUAGGAUAUCUAGGAUAUGGACGAGGAUCACCCGAGCAGCAUCAGCGCACCAGAGGAGAGAAGGACGCUUUGGAA [pwkr ssNG2 2F5 2FMN.22] (Eterna round: R96, puzzle: Same State NG 2)” are 477 nM, 658 nM and 486 nM.
For the sequence “AAACAUGAGGAUCACCCAUGUCGAUCAGAACUCUGAUCUGCUCAGGAUAUCCGAAUGCGCGUUUCGGAGAAGGGAGAAAUGUGA [Lareraedqu] (Eterna round: R96, puzzle: Same State NG 3)”, the “apparent KD of MS2 coat protein” value runs as follows: (input ligand: FMN 200 uM) 69.8 nM; under setting [1], 36.4 nM; (input ligand: none) 53.2 nM.
On the same counts, the results for “GCUACGGACGUAGGAUAUGUAGGAUAUGGUGAGAGCUAAGCUUGGAAGUCACUUCAACCAGAAGGACAGAAGGACGCCGUGAGG [pwkr ssNG2 2FMN + F9.18] (Eterna round: R96, puzzle: Same State NG 2)” are 241 nM, 13.4 nM and 52.2 nM.
On the same counts, the results for “AUUCGUUUGAUAGGAUAUCACUUUACAUGAGGAUCACCCAUGUUCACCACGCUGGUCUCUUAUACUGAGAAGGAUCUUGAUGAC [JR_SSNG2_Sub009] (Eterna round: R96, puzzle: Same State NG 2)” are 22.9 nM, 18.8 nM and 28 nM.
For “CCUUAGUACAAUUUAGAUCUACAUGAGGAUCACCCAUGUACUGAGGAUAUCAGCUCGAAUAGAGCUGAGAAGGCAGAAGUACUU [SSNG3/7-A1] (Eterna round: R96, puzzle: Same State NG 3)”, in that order: 60.3 nM, 154 nM and 130 nM.
“UGGCUCAGACGAGGAUAUAUGUAAUAACAUGAGGAUCACCCAUGUGUCGAGCUUCGGCUCGACACAUAGAAGGCGUCUGAGCCU [SSNG2/2-A3] (Eterna round: R96, puzzle: Same State NG 2)”: the “apparent KD of MS2 coat protein” value (input ligand: FMN 200 uM) came out at 12.7 nM, the “apparent KD of MS2 coat protein” value under setting [1] stood at 20.2 nM and the “apparent KD of MS2 coat protein” value (input ligand: none) came out at 33.3 nM.
On to “GAAGGAUGAGCGUAGGAUAUAGGAGGAGUGACAUGAGGAUCACCCAUGUAGUAAGAGGGAGGGUACUAGAAGGACGAGGAAGAAG [JR_SS2_Sub066] (puzzle: Same State 2)”, for which the “apparent KD of MS2 coat protein” value came to 602 nM under setting [2], 6 nM under setting [3] and 16.3 nM under setting [4].
As to “CUUGGGUGGCUGGAGGAUAUUCGAGUGGUAACAUGAGGAUCACCCAUGUGUCGCGCGGUACACGAGGAGAAGGCUGGCGGCCGGC (puzzle: Same State 2)”, the “apparent KD of MS2 coat protein” value under setting [3] was determined as 84.8 nM.
For “GCCGGCUGGUGAGGAUAUGGCACCUUAUUGGUGCCAGAAGGCAUGUCAAUUGACAUGAGGAUCACCCAUGUAUUAUAGUUGGCG [salish99_SSNG1_r04_605] (Eterna round: R96, puzzle: Same State NG 1)”, the “apparent KD of MS2 coat protein” value reads like this: (input ligand: FMN 200 uM) 414 nM; under setting [1], 69.3 nM; (input ligand: none) 56.1 nM.
As for “UUGAAGAAUUAAGGAUAUUGAUUACAUAUGUUUAACAUGAGGAUCACCCAUGUGGGUUGCGGUAUCGAGAAGGUAAAUUACUAG [JL SSNG2 1.47] (Eterna round: R96, puzzle: Same State NG 2)”, the “apparent KD of MS2 coat protein” value reads like this: (input ligand: FMN 200 uM) 137 nM; under setting [1], 122 nM; (input ligand: none) 162 nM.
On the same counts, the results for “AUUUUUAAUGCAGGAUAUGAUUAACAUGAGGAUCACCCAUGUGGUGUUGUGAGUAAGGAGAGUGAUCAGAAGGGCAUUUUUUUC [JMF's solution 91] (Eterna round: R96, puzzle: Same State NG 2)” are 888 nM, 274 nM and 502 nM.
On the same counts, the results for “GCGAGCGUACUUGCUACAUGAGGAUCACCCAUGUUCGUUGGACAGGAUAUGGUACCGUUUCGGUACCAGAAGGGUUCAUCAUGA [JL SSNG3 3.76] (Eterna round: R96, puzzle: Same State NG 3)” are 75.7 nM, 147 nM and 241 nM.
For “GAGUGGCAGUAAGGAUAUAUAGUGAUAAUCACAGUAGAAGGUACUGACAUGAGGAUCACCCAUGUAGGACUAAUCCAGAGAGAG [Parity 42 - Jieux - Same State NG 1] (Eterna round: R96, puzzle: Same State NG 1)”, in that order: 73.6 nM, 26.4 nM and 37.5 nM.
With “GCUAGAAAUAAAGCCAACAUGAGGAUCACCCAUGUAUGUUGGCAGGAUAUCGUAUGCAAAGCAUACGAGAAGGGCCAAACUAGC [Mat - Same State NG 3 - JL Mod - D3] (Eterna round: R96, puzzle: Same State NG 3)”, the “apparent KD of MS2 coat protein” value was 37.3 nM (input ligand: FMN 200 uM), 85 nM under setting [1] and 117 nM (input ligand: none).
Consider “UUGCUUCUCGUAGGAUAUGUAGGAUAUUCCUACAUGAGGAUCACCCAUGUUCGCAUGGAAGAAGGACAGAAGGACGAUCACCCU [pwkr ssNG2 2FMN + 1F5.10] (Eterna round: R96, puzzle: Same State NG 2)”, for which the “apparent KD of MS2 coat protein” value was determined as 330 nM (input ligand: FMN 200 uM), 234 nM under setting [1] and 271 nM (input ligand: none).
On to “AAACAUGAGCGAGGAUAUGCGGACGAUUACGCUGUAGAAGGCGCAUGUAAAACAACAUGAGGAUCACCCAUGUCAUGUACAUGA (Eterna round: R96, puzzle: Same State NG 1)”, for which the “apparent KD of MS2 coat protein” value (input ligand: FMN 200 uM) was 81.3 nM, the “apparent KD of MS2 coat protein” value under setting [1] turned out to be 50.4 nM and the “apparent KD of MS2 coat protein” value (input ligand: none) was 83.6 nM.
Regarding “GUAGAUAUAACGCAGGAUAUUCAAUGAGAGACAUGAGGAUCACCCAUGUGAGAGUGAGAUGAUAGGAAGAAGGGUGAGAGAGAUG [Altered State 2-8 - Jieux - Same State 2] (puzzle: Same State 2)”, the “apparent KD of MS2 coat protein” value was determined as 107 nM under setting [2], 124 nM under setting [3] and 122 nM under setting [4].
For “AUAAGGCAAGCUUUUUUCUCGUAGUGUAAACAUGAGGAUCACCCAUGUGCCCGCUCUGGAUCUUUGGAUCGCAGAAA [Lavegeaus] (puzzle: Sensor for hsa-mir-208a)”, in that order: 26.6 nM, 18.2 nM and 25.9 nM.
Consider “GUGGUCAGACAUGAGGAUCACCCAUGUGGAAUAAAUAACGGUGAGGAUAUCGAAUAUAGGAUAUACGAGAAGGCAUGAUUGGUG (Eterna round: R96, puzzle: Same State NG 3)”, for which the “apparent KD of MS2 coat protein” value (input ligand: FMN 200 uM) is 165 nM, the “apparent KD of MS2 coat protein” value under setting [1] amounted to 93.3 nM and the “apparent KD of MS2 coat protein” value (input ligand: none) came to 124 nM.
With “UACCAACAUAUAGAACAAGCGUGCUCGUCACAUGAGGAUCACCCAUGUCUAAGCGCUGAACCUGCAUCCUCAGCGCC [Oniste] (puzzle: Sensor for hsa-mir-208a)”, the “apparent KD of MS2 coat protein” value by setting is: under setting [2], 78.5 nM; under setting [3], 26.5 nM; under setting [4], 85.9 nM.
Consider “GAGUGGUUGGGAGGAUAUGCAUUGUUAUUAAAUGCAGAAGGUUUUAACAUGAGGAUCACCCAUGUAGGACUAUUCCUGUGUAUC [Parity 69 - Jieux - Same State NG 1] (Eterna round: R96, puzzle: Same State NG 1)”, for which the “apparent KD of MS2 coat protein” value runs as follows: (input ligand: FMN 200 uM) 13 nM; under setting [1], 12.1 nM; (input ligand: none) 15.8 nM.
Take “UGUUGUAUUACAGGAUAUCUAGAAUUUUUAUUUAGAGAAGGGUAUUCACAUGAGGAUCACCCAUGUAUAUACGAGGAAGUUGUG [JMF's solution 30] (Eterna round: R96, puzzle: Same State NG 1)”: under setting [1], the “apparent KD of MS2 coat protein” value was 27.9 nM.
With “AGUCCUGAAAGGAAAAUUAUAAGUGAUGUACAUGAGGAUCACCCAUGUCAUGUACAAGUUCUAUGCUCGUCUUAUAA [Sensorship 25 - Jieux - Sensor for hsa-mir-208a] (puzzle: Sensor for hsa-mir-208a)”, the “apparent KD of MS2 coat protein” value reads like this: under setting [2], 222 nM; under setting [3], 34.1 nM; under setting [4], 216 nM.
As to “GAUUAACAUGAGGAUCACCCAUGUCGUUUAAUGGGAGGAUAUACGUGGACCGUAGUCCGCGUAGAAGGCCUAAUUG [JL-ss1-3.22 janelle mod] (Eterna round: R96, puzzle: Same State 1)”, the “apparent KD of MS2 coat protein” value (input ligand: FMN 200 uM) is 31.5 nM, the “apparent KD of MS2 coat protein” value under setting [1] was 48.3 nM and the “apparent KD of MS2 coat protein” value (input ligand: none) amounted to 77.4 nM.
On the same counts, the results for “CCGAAAGGAGUAGGAUAUGUAGGAUAUUCCUACAUGAGGAUCACCCAUGUUCGCAUGGAAGAAGGACAGAAGGACACGGAAACG [pwkr ssNG2 2FMN + 1F5.14] (Eterna round: R96, puzzle: Same State NG 2)” are 212 nM, 19 nM and 66.2 nM.
For the sequence “CCGGCAAGUAUAGGAUAUCCCGCUACAGAAGCGGGAGAAGGGUGCCAAACAUGAGGAUCACCCAUGUACACCGGAAAUAUAUAA [Soorve] (Eterna round: R96, puzzle: Same State NG 1)”, the “apparent KD of MS2 coat protein” value runs as follows: (input ligand: FMN 200 uM) 36.4 nM; under setting [1], 31.2 nM; (input ligand: none) 34.6 nM.
